In one experiment the target is T1, KLH-(N847-S857) (Staphylococcus aureus, protein A …).
T1 construct: stretch N847-S857 of SpA5; they were put together from the eleven consecutive residues in the docking list; also called synthetic peptide N847-S857; source: synthetic peptide, coupled to keyhole limpet hemocyanin (KLH)
T1 chain: NEEQRNGFIQS
The experiment is described as follows: ELISA; KLH-(N847-S857) coated at 2 ug/mL; Abs-9 from 2 ug/mL in PBST, diluted in half; 37 C 1 h; goat anti-human IgG Fc-HRP, OD450; SpA5 positive control, KLH negative control. The conditions noted are these: both partners purified.

Experiment [1] addresses T2, mutant staphylococcal protein A (SpA5) (Staphylococcus aureus, recombinant …, point mutant).
T2 construct: staphylococcal protein A, mutant 'pentameric form' (SpA5), component of the recombinant five-component S. aureus vaccine; The residue numbers printed for SpA5 (E790 to N893) come from the docked model; also called antigen SpA5; pentameric form of S. aureus protein A; source: recombinant antigenic protein (vaccine component of rFSAV)
The experiment is described as follows: BLI; Octet RED96, room temperature, PBS with 0.01% Tween 20; Abs-9 (8 ug/mL) loaded on Pro A biosensor; SpA5 in double dilutions 53 uM to 6.63 uM, 600 s association, 600 s dissociation. To be noted: both partners purified. A general note: In BLI a coated tip is dipped into the sample, and binding shifts an interference pattern.

In experiment [2] the target is T3, S. aureus protein A in MRSA252 bacterial fluid (Staphylococcus aureus MRSA252 (stand-in …, UniProt P02976, strain)).
T3 construct: staphylococcal protein A as it is present in strain MRSA252; The lysate of MRSA252 can hold only the native protein A, not the recombinant mutant SpA5; also called SpA; source: endogenous, MRSA252 ultrasonically fragmented and centrifuged, supernatant
The experiment is described as follows: affinity purification with mass spectrometry; supernatant of ultrasonically fragmented MRSA252 incubated overnight with Abs-9 (200 uL, 8 mg/mL), bound to Protein A beads 2 h, eluate to mass spectrometry. The conditions noted are these: one partner purified.

B1: human antibody Abs-9 (antibody, V domains shown)
VH: QVQLQQWGAGLLKPSETLSLTCAVYGGSFSGYYWSWIRQPPGKGLEWIGEINHSGSTNYNPSLKSRVTISVDTSKNQFSLKLSSVTAADTAVYYCARRSYGVKPFDYWGQGTLVTVSS
VL: SSELTQDPAVSVALGQTVRITCQGDSLRTYYASWYQQKPGQAPALVIYGKNNRPSGIPDRFFGSSSGNTASLTITGAQAEDEADYYCNSRDSSGNHHPVFGGGTKLTVL
notes: germline VH3-48 gene; also called IgG-9; source: 293F cells, transfected (heavy and light chain plasmids, PEI), purified from supernatant on Protein A beads
A word on the Kd: it is a measure of binding affinity in units of concentration. As usually defined, the koff is the rate constant with which the complex falls apart. Regarding B1, in the experiment with KLH-(N847-S857), the binding result was “binds”. In addition, in experiment [1], the Kd is 1.96 nM and the koff was 5.63e-07 s⁻¹. Moreover, the binding result in experiment [2] is reported as “binds”.

The record behind these values is PMC11743104, “Potent human antibodies against SpA5 identified by high-throughput single-cell sequencing of phase I clinical volunteers’ B cells” (iScience, 2024).
